For assay [1], the target named is CD74 on human cells (human) (UniProt P04233). In words: HC-1 (hairy cell leukemia) cells; no mAb 4.8.
Assay [2] has the same target. Description: MEC-1 (CLL) cells; no mAb 4.7.
Assay [3] deals with CD74 on dog lymphocytes and dog lymphoma cells (dog). In words: flow cytometry, canine lymphoma aspirate 150836; none 3.9. In general terms: Flow cytometry measures light scatter and fluorescence of single cells or particles in a stream.
The target of assay [4] is CD74 on human cells (human) (UniProt P04233). Description: Kasumi-3 (AML) cells; no mAb 9.6.
Assay [5] has the same target. Description: GDM-1 (AML) cells; no mAb 16.8.
Assay [6] shares this target. Description: MN60 (ALL) cells; no mAb 8.1.
Assay [7] shares this target. Description: Jeko-1 (MCL) cells; no mAb 14.3.
The target is the same in assay [8]. Description: K562 (CML) cells; no mAb 3.2.
Assay [9] shares this target. Description: REH (ALL) cells; no mAb 3.9.
Assay [10] deals with CD74 on dog lymphocytes and dog lymphoma cells (dog). In words: flow cytometry, dog lymphoma aspirate; none 3.85.
Assay [11] addresses CD74 on human cells (human) (UniProt P04233). In words: indirect flow cytometry, Namalwa cells, FITC-GAM 2nd Ab; none 2.91.
For assay [12], the target named is CD74 on dog lymphocytes and dog lymphoma cells (dog). Description: flow cytometry, dog lymphoma aspirate; none 3.37.
Assay [13] shares this target. In words: flow cytometry, canine lymphoma aspirate 150836; none 3.4.
Assay [14] deals with CD74 on human cells (human) (UniProt P04233). In words: Granta-519 (MCL) cells; no mAb 15.3.
Assay [15] has the same target. In words: RS4;11 (ALL) cells; no mAb 6.4.
The target is the same in assay [16]. Description: 697 (ALL) cells; no mAb 4.9.
Assay [17] shares this target. In words: Kasumi-1 (AML) cells; no mAb 18.2.
For assay [18] the target is unchanged. Description: WAC (CLL) cells; no mAb 15.8.
Assay [19] addresses HLA-DR (human leukocyte antigen-DR) on human lymphoma and leukemia cells and human lymphocytes (human). Description: indirect flow cytometry, Namalwa cells, FITC-GAM 2nd Ab; none 2.91; control antibody (anti-CEA).
Assay [20] has as its target human serum complement. Description: cell-based or functional assay.

CD74 on human cells (human), sequence (P04233 whole entry): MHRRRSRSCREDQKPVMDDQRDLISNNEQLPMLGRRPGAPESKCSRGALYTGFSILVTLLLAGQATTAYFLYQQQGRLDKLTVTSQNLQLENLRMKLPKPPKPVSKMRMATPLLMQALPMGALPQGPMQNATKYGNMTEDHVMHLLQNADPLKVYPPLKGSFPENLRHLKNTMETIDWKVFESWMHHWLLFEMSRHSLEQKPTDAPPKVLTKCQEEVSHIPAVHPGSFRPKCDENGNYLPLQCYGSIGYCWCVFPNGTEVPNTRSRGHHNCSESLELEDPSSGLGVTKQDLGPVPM

B1: LL1 (murine anti-human CD74 mAb) (antibody, from a related filing, V domains shown)
VH: QIQLVQSGPELKKPGETVKVTCKTSGYTFTNYGVNWIKQTPGEGLQWMGWINPNTGEPTFDDDFKGRFAFSLESSASTAFLQISNLKNEDMGTYFCSRSRGKNEAWFAYWGQGTLVTVSE
VL: DVVMTQTPLSLPVSLGDQASISCRSSQSLVHRNGNTYLHWYLQKPGQSPKLLIYTVSNRFSGVPDRFSGSGSGTDFTLKISRVEAEDLGLYFCSQSSHVPPTFGAGTKLEI
For the molecule B1, the mean FL was determined as 36.7 in assay [1]; 44.7 in [2]; 18.4 in [4]; 69.5 in assay [5]; 25.9 in [6]; 32.7 in assay [7]. In addition, the mean FL was determined as 7 in [8]; 61.1 in [9]; 4.01 in [12]; 4 in assay [13]; 50.8 in assay [14]; 24.3 in [15]. For the same molecule, the results for the mean FL in [16], in assay [17] and in [18] were 20.6, 23.8 and 43.6, respectively. For the same molecule, the % Positive in [3] was determined as 6.7%; in assay [10], 6.69%. The molecule also had a geometric mean fluorescence in [11] of 17.3.

B2: MN-14 (murine anti-carcinoembryonic antigen mAb) (antibody, from a related filing, V domains shown)
VH: EVKLLESGGGLVQSGGSLKLSCAASGFDFTTYWMSWVRQAPGKGLEWIGEIHPDSSTINYAPSLKDKFIVSRDNAKNTLYLQMSKVRSEDTALYYCASLYFGFPWFAYWGQGTPVTVSA
VL: EIQLTQSHKMMSTSVGDRVSITCKASQDVGTSVAWYQQRPGQSPKLLIYWTSTRHTGVPDRFTGSVSGTDFTLTITNVQSEDLADYFCQQYSLYRSFGGGTKLEIK
Molecule B2 had a geometric mean fluorescence in assay [19] of 3.32.

B3: hL243 (humanized L243 anti-HLA-DR antibody, IgG1/K isotype) (antibody, V domains shown)
VH: QVQLQQSGSELKKPGASVKVSCKASGFTFTNYGMNWVKQAPGQGLKWMGWINTYTREPTYADDFKGRFAFSLDTSVSTAYLQISSLKADDTAVYFCARDITAVVPTGFDYWGQGSLVTVSS
VL: DIQLTQSPSSLSASVGDRVTITCRASENIYSNLAWYRQKPGKAPKLLVFAASNLADGVPSRFSGSGSGTDYTFTISSLQPEDIATYYCQHFWTTPWAFGGGTKLQIKR
Consider B3, for which the complement-mediated cytotoxic effect on Daudi cells (CDC, resazurin viability), EC50 in assay [20] was found to be 2.6 nM.
